The text below walks through data of article PMC5993284, “Peptide inhibitors of the anaphase promoting-complex that cause sensitivity to microtubule poison” (PLoS ONE, 2018).

“Also recorded” adds a separate entry of the source.

One experiment relates to APC/C. Kind of experiment: APC/C activity promoted by mutant Cdc20 alleles (Pds1 remaining). The class given is biochemical, Saccharomyces cerevisiae. As to the method: (§1) The production of Cdc20 or Cdh1 was prepared by IVT/T reactions, where 16 μL of rabbit reticulocyte lysate, 20 μM L-methionine, 0.4 μg of plasmid DNA, and a volume of nuclease-free ddH2O for a total volume of 20 μL. This freshly synthesized Cdc20 or Cdh1 protein was used directly in all APC/C assays after a 1-hour synthesis reaction at room temperature. The APC/C was purified for enzyme assays from 1 mL of TAP-tagged Cdc16 yeast extract (SCSY51) where extract was mixed with 50 μL 50:50 slurry magnetic beads (Invitrogen, Norway) for 2 hours at 4 °C. After incubation, the beads were washed with 3 mL APC/C wash buffer (200 mM of HEPES, 150 mM of NaCl and 10% (v/v) of glycerol). APC/C bound to IgG magnetic beads was used directly in the enzyme assays.
(§2) APC/C assays were performed by adding the reaction contents in following order: 4.3 μL of QAH buffer, 20 μL of rabbit reticulocyte lysate containing Cdc20 or Cdh1 with or without an additional volume of recombinant checkpoint protein(s) or inhibitor peptides, 2.4 μL ubiquitin aldehyde (Boston Biochem, USA), APC/C, 16 μL pre-charged E1/E2/ATP/ubiquitin mix, and 13.3 μL of ^35S-Pds1 with QAH buffer (20 mM HEPES at pH 8.0, 100 mM NaCl, and 1 mM MgCl2). The E1/E2/ATP/ubiquitin mix were pre-charged by mixing 1 μL of E1 (Boston Biochem, USA), 1 μL of E2 (Boston Biochem, USA), 14.4 μL of ATP, 14.4 μL of […] (Boston Biochem, USA), and 17.2 μL of QAH buffer and incubated for 15 minutes at room temperature. Approximately 15 μL of samples were taken out at each time point, and the reaction was stopped by the addition of 2x protein sample buffer (125 mM Tris-HCl pH 6.8, 4% SDS, 20% glycerol, and 0.002% bromophenol blue, with 10% (final v/v) 2-mercaptoethanol added in fresh directly before use).
For APC/C activity assays dried-gels were exposed on a phosphor screen cassette to detect radio-labeled protein. The phosphor screen was scanned by a Typhoon phosphor-imager (GE Healthcare Bio-Sciences, USA), and radio-labeled protein bands in gels were quantified by employing the ImageQuant software (GE Healthcare Bio-Sciences, USA) according to the manufacturer’s protocols. Data were expressed as mean ± standard deviation, and was analyzed using Student’s t-test. Graphs were created using Kaliedograph 4.0 (Synergy Software, USA) and estimates of best-fit curves of a 4-parameter Hill equation were generated to obtain estimates for the median inhibitory concentrations (IC50) and Hill coefficients (Hc) using IgorPro 6.01 (Wavemetrics, USA).
By sequence alignment and amino acid homology alone, the budding yeast KILR-motif may be defined as 201-RILQ-204 (Fig 1A). However, the next residue, Tyrosine Y205 had previously been isolated in a genetic screen for spindle checkpoint by-pass alleles of Cdc20 [21], indicating this Y205 residue may be a target of the spindle checkpoint inhibition, and thus might also be a functional KILR-motif residue that contributes to APC/C activation. To clarify this possibility, we took the initial step to characterize several of the previously isolated spindle checkpoint by-pass mutant alleles of Cdc20 [21], and also Cdc20 mutants in the two highly conserved residues within the Mad2-binding motif, the aspartic acid at D197 of unknown function and the highly conserved Leucine L203 within the KILR-motif based on sequence alignment and homology. […]

The subject of another experiment is APC/C^Cdh1. Kind of experiment: APC/C^Cdh1 enzyme assay (ubiquitination of 35S-Pds1). The class given is biochemical, Saccharomyces cerevisiae. Conditions: 220 μM peptide; 35S-Pds1 substrate; time course 0-60 minutes; vs buffer; n = 3. As to the method: (§3) Full-length, radio-labeled protein purifications were preformed as previously described. ^35S-Pds1 was prepared in a 500 μL IVT/T (In Vitro Transcription/Translation) reaction (Promega, USA), which contained 400 μL rabbit reticulocyte lysate, 20 μL of L-^35S-methionine (PerkinElmer, USA), 10 μg of plasmid DNA, and the remaining volume as nuclease-free ddH2O as recommended by the manufacturer. The reaction mixture was incubated for 2 hours at room temperature and gently mixed every 30 minutes. The reaction was added to pre-equilibrated IgG Sepharose beads (GE Healthcare, USA) in Bio-spin disposable chromatography columns (Bio-Rad, USA) for binding for 2 hours at room temperature. To ensure efficient binding, the beads were re-suspended several times every 30 minutes. After binding, the beads were washed with 5 mL wash buffer, containing 200 mM 4-(2-hydroxyethyl)-1-piperazineethanesulfonic acid (HEPES) at pH 8.0, 150 mM NaCl, 10% (v/v) glycerol, and 1 mM dithiothreitol (DTT). The ^35S-Pds1 was cleaved from the beads using TEV (Tobacco Etch Virus) protease in 1x TEV buffer (Invitrogen, USA) for 2 hours at room temperature, and the mixture was re-suspended several times every 30 minutes to promote efficient cleavage. The elution was collected and concentrated by employing an Amicon Ultra filter column (Millipore, Ireland). The concentrated ^35S-Pds1 was collected in a new tube, and stored at -20 °C.
as §1
APC/C assays were performed by adding the reaction contents in following order: 4.3 μL of QAH buffer, 20 μL of rabbit reticulocyte lysate containing Cdc20 or Cdh1 with or without an additional volume of recombinant checkpoint protein(s) or inhibitor peptides, 2.4 μL ubiquitin aldehyde (Boston Biochem, USA), APC/C, 16 μL pre-charged E1/E2/ATP/ubiquitin mix, and 13.3 μL of ^35S-Pds1 with QAH buffer (20 mM HEPES at pH 8.0, 100 mM NaCl, and 1 mM MgCl2). […]

The next experiment has as its target T1, APC/C^Cdc20 (Saccharomyces cerevisiae, UniProt P16522+P53886).
T1 construct: constructed within full-length Cdc20 by site-directed mutagenesis for analysis in vitro in the APC/C^Cdc20 assay; The APC/C was purified for enzyme assays from 1 mL of TAP-tagged Cdc16 yeast extract (SCSY51); made in house; host or cells: Cdc20: in vitro transcription/translation in rabbit reticulocyte lysate, used unpurified; APC/C: S. cerevisiae strain SCSY51 (Cdc16-TAP) extract, captured on IgG magnetic beads
Description: biochemical. The class given is biochemical. Conditions: 220 μM peptide; 35S-Pds1 substrate; time course 0-60 minutes; vs buffer only; n = 3. Here is the method:
as §3, §1, §2
For inhibitor titration and time-course experiments, recombinant Bub3, Mad2, Mad3, and the Mad3-Bub3 complex were expressed and purified as previously described. […] For inhibition of APC/C the co-factor Cdc20 or Cdh1 was made fresh by IVT/T, and pure recombinant checkpoint proteins or inhibitor peptides were added to the IVT/T mixture and incubated for an additional hour at room temperature. In titrations, a dilution series of the checkpoint protein(s) were made before incubation with the Cdc20 co-factor. SDS-PAGE was performed using stand protocols (BioRad, USA).

B1: Cdc20-CB (I147A, P148A): control mutant with mutations in two residues within the C-box (protein, UniProt P26309 1-610, looked up, variant I147A P148A)
APC/C activator protein CDC20: MPESSRDKGNAAISGNRSVLSIASPTKLNILSSDWSRNQGKVSKNSLKRSSSLNIRNSKRPSLQASANSIYSRPKITIGAPPLIRRDSSFFKDEFDAKKDKATFSAYSSRSYPTIGSESVVSQTSLSQPTTSREVDEQFTVAADRYAAILQGASQNKVDPETLHEALPPPNASPISHLRAQTKIVFKQNVAEACGLDMNKRILQYMPEPPKCSSLRQKSYIMKKRTHYSYQQEQKIPDLIKLRKINTNPERILDAPGFQDDFYLNLLSWSKKNVLAIALDTALYLWNATTGDVSLLTDFENTTICSVTWSDDDCHISIGKEDGNTEIWDVETMSLIRTMRSGLGVRIGSLSWLDTLIATGSRSGEIQINDVRIKQHIVSTWAEHTGEVCGLSYKSDGLQLASGGNDNTVMIWDTRTSLPQFSKKTHTAAVKALSWCPYSPNILASGGGQTDKHIHFWNSITGARVGSINTGSQVSSLHWGQSHTSTNGGMMNKEIVATGGNPENAISVYNYETKFKVAEVVHAHEARICCSQLSPDGTTLATVGGDENLKFYKIFDPRCTGRSREDGLMDGMLGLIGKEGCRTNDKENRSKNSSEIHTRRPSSTSQYLIR
As for B1, the “ability of mutant Cdc20 to promote APC/C activity (in words)” value is recorded as “displayed decreased APC/C activity; also recorded: consistently displayed a decrease in APC activity” with APC/C (vs wild type Cdc20, n = 3) and “had no APC/C activity” in the experiment with APC/C (vs wild type Cdc20, n = 3, listed as Cdc20-CB).

B2: Cdc20-L203A: mutant allele of Cdc20 in the conserved KILR-motif (protein, UniProt P26309 1-610, looked up, variant L203A)
APC/C activator protein CDC20: MPESSRDKGNAAISGNRSVLSIASPTKLNILSSDWSRNQGKVSKNSLKRSSSLNIRNSKRPSLQASANSIYSRPKITIGAPPLIRRDSSFFKDEFDAKKDKATFSAYSSRSYPTIGSESVVSQTSLSQPTTSREVDEQFTVAADRYIPILQGASQNKVDPETLHEALPPPNASPISHLRAQTKIVFKQNVAEACGLDMNKRIAQYMPEPPKCSSLRQKSYIMKKRTHYSYQQEQKIPDLIKLRKINTNPERILDAPGFQDDFYLNLLSWSKKNVLAIALDTALYLWNATTGDVSLLTDFENTTICSVTWSDDDCHISIGKEDGNTEIWDVETMSLIRTMRSGLGVRIGSLSWLDTLIATGSRSGEIQINDVRIKQHIVSTWAEHTGEVCGLSYKSDGLQLASGGNDNTVMIWDTRTSLPQFSKKTHTAAVKALSWCPYSPNILASGGGQTDKHIHFWNSITGARVGSINTGSQVSSLHWGQSHTSTNGGMMNKEIVATGGNPENAISVYNYETKFKVAEVVHAHEARICCSQLSPDGTTLATVGGDENLKFYKIFDPRCTGRSREDGLMDGMLGLIGKEGCRTNDKENRSKNSSEIHTRRPSSTSQYLIR
For B2, in the experiment on APC/C (vs wild type Cdc20, n = 3), the “ability of mutant Cdc20 to promote APC/C activity (in words)” value was “displayed decreased APC/C activity; also recorded: had no APC/C activity; also recorded: consistently displayed a decrease in APC activity”.

B3: C-box2: C-box2 (Cdc20 130–196) containing the region between the C-box and the Mad2-binding motif (peptide, UniProt P26309 130-196, looked up, fragment)
chain: TTSREVDEQFTVAADRYIPILQGASQNKVDPETLHEALPPPNASPISHLRAQTKIVFKQNVAEACGL
For B3, the “inhibition of APC/C^Cdh1 activity (in words)” value in the experiment on APC/C^Cdh1 was “also inhibited APC/C^Cdh1 activity; also recorded: A significant level of APC/C^Cdh1 inhibition was observed”. Also, the “inhibition of APC/C^Cdc20 activity (in words)” value with APC/C^Cdc20 was “observed to inhibit APC/C^Cdc20 activity; also recorded: A significant level of APC/C^Cdc20 inhibition was observed only in the presence of the C-box2 peptide”.
